test: soluble on expression in E. coli; label from the status in PepcDB or PDB records

Sequence	soluble on expression in E. coli
MDSKQQCVKLNDGHFMPVLGFGTYAPPEVPRSKALEVTKLAIEAGFRHIDSAHLYNNEEQVGLAIRSKIADGSVKREDIFYTSKLWSTFHRPELVRPALENSLKKAQLDYVDLYLIHSPMSLKPGEELSPTDENGKVIFDIVDLCTTWEAMEKCKDAGLAKSIGVSNFNRRQLEMILNKPGLKYKPVCNQVECHPYFNRSKLLDFCKSKDIVLVAYSALGSQRDKRWVDPNSPVLLEDPVLCALAKKHKRTPALIALRYQLQRGVVVLAKSYNEQRIRQNVQVFEFQLTAEDMKAIDGLDRNLHYFNSDSFASHPNYPYSDEYLEHHHHHH	soluble
MGSDKIHHHHHHMLAGGKMGDMKITRHIHACVEISQGNDRIIIDPGTFGAPDLCGATILVTHNHADHVDPELLKPGMTIYAPRSVAHSIPVECHIVEHGRNFTVGSLSVEVLGSEHAMLTHSMPIAENVGYLINGRVLHPGDTFQPIKDVELALVPVNGPWVKMLDVEGYLKKFPPKRFIGIHDGIVNDRGLAINKKFLTHLGETYGSEYSPLEEGESLEI	not soluble
SSLVRRIISTAKAPAAIGPYSQAVLVDRTIYISGQLGMDPASGQLVPGGVVEEAKQALTNIGEILKAAGCDFTNVVKATVLLADINDFSAVNDVYKQYFQSSFPARAAYQVAALPKGGRVEIEAIAVQGPLTTASL	soluble
MAHHHHHHMPPLLTEVKPAGYRPQLRVCYLCGQQFGSASIGIHVPQCYQKKLSQWEVTDPAVRGPKPKHPDMVKWKGGNGASVEAINREQYQEFNSQLVACPHCARTFLPDRLPVHLRGCRGDGKVGVPSSKAKADGGGGSTPGGGKHKSEPRRAAGCRSLSPGPPLLPTCYLCGQQFGTASIGIHVPQCYEKKLAQWQNADPHSRGHPPKHPDTVNWRGRPGASPREQAEEQFQEFMNNLEECPNCSRRFLPERLVVHLRSCRPDNPPKPTSPRKAKTGGGARCPTPTTATTPADTAATKASIGGQTPRSEKQQRKQEPPTSSAGEDWIHPKRNRLTRHSTLPTESRVCPQCDAVEYDADAKFCRDCGHNFVPKPLSNSCQHCGERIPHGSRFCGTCGQPVQGASAHELTPGGPNKHASTVRRVVCPACEAISDADGNFCDNCGAALGDADLTPAPAAAGAAATPPSTRAGGSTEHKAVLYCAKCKETVEDTTAVFCEDCGGRLEALKVLTTKDDGPPLRADGTLPPSDVARLKVARASTPQRPSASEPAKTVTTPVASSVAPARPQTRNACTPIEEHTDEFPAYAEDDLVRVPCSHCGRQFASESLAKHERICCSQKKRRVFNATKQRLPEGATAAAKPSAGSQPAAPKRDWKAESESFRRALREARQVDQVLKAGGTAKDLPPPTYSTNPDYVPCPHCQRRFAPDVAARHIPRCANTVNRPKPPPRRR	soluble
MGFHLRGNNDFAFKRLYINLPQNSQMRAQLRRLIDNGSDTVVVSDKQDADAFLDVLSENRVKTISSLTPQGVVREYRITYRFSFQLRDAHDNLLIPPSEITLFRDLSYNETQVLAKDYEEAALYRDMQGDIVNQLVRRLASVRLPSLEHHHHHH	soluble
MTDNNKYRDVEIRAPRGNKLTAKSWLTEAPLRMLMNNLDPQVAENPKELVVYGGIGRAARNWECYDKIVETLTRLEDDETLLVQSGKPVGVFKTHSNAPRVLIANSNLVPHWANWEHFNELDAKGLAMYGQMTAGSWIYIGSQGIVQGTYETFVEAGRQHYGGSLKGKWVLTAGLGGMGGAQPLAATLAGACSLNIESQQSRIDFRLETRYVDEQATDLDDALVRIAKYTAEGKAISIALHGNAAEILPELVKRGVRPDMVTDQTSAHDPLNGYLPIGWTWEQYRDRAQTIPAAVVKAAKASMAVHVQAMLDFQKQGVPTFDYGNNIRQMAKEEGVANAFDFPGFVPAYIRPLFCRGVGPFRWAALSGEAEDIYKTDAKVKELIPDDAHLHRWLDMARERISFQGLPARICWVGLGLRAKLGLAFNEMVRSGELSAPVVIGRDHLDSGSVSSPNRETEAMRDGSDAVSDWPLLNALLNTAGGATWVSLHHGGGVGMGFSQHSGMVIVCDGTDEAAERIARVLTNDPGTGVMRHADAGYDIAIDCAKEQGLDLPMITG	soluble
MNDPADTLRATLADLVDGLPPRQAARAVERLIANYRGDTPTDAPILRDRADVVAYAAYRMPATFAAVRSALTAFAEAVPDWVPGSHLDVGGGTGAATWAVSDTWGGTRPVTVLDWAEPALVLGQEIAASLPALREARWRRSRIGAALDIESVELVTVSYVLNELTGSDRAALVDAAAGAARAVVIVEAGTPAGYARVVEARDRLIAAGFRVAAPCPHSAACPIEAGTDWCHFAARVSRSSLHRQVKSGSLAYEDEKFSYVAATRLPVEPAASRVVRRPQIRKGQVLLDLCASDERLRRSTVTKRHGDLYKAARDAAWGDPWPPGEDLEHHHHHH	soluble
MYEITATIVTYKNPDSVLLKAINSFLNTKLEVRLYIIDNSPTDYLKDISYDPRVEYIFMNSNNGFGAGHNVILRDPEKMGKYHLILNPDISFEEGTLEKLYDYMEGKLDVGNVMPKVIYPNGELQYLCKLLPTPKDWIVRMFLPIKSIKNRIDYNFEMKFADYDREMNIPYLSGCFMFLRKSVIEGIGVFDEGIFMYGEDTDLNRRIYRKYKTMYYPQVTITHHFEKGSHKSLRLLWIHVKAAIYYLNKWGWFFDKERSIINITVKQQYIRKLEHHHHHH	soluble
MSLKVTMEFIANQLGITKNTVSLALRNMPGVSEKTRKEILRTAEKYGYIYKKSNSKNSKSNSRTGSICLMLSNDTKNSVGFFSFIQYGVESEGKRNGLNTILYCFDDNKEFQPPVCIRDGIVSGIITLGRISRKTVSSIISLNLPLVIVDDFFDDIKASYVLTDNLSGGYTATEYLIKSGHRSIGFFGDIFASPSFFDRYMGYLKAHVQYNLPVNSSFSIIDKNMAVLLHEGVDKVVDELKKIPQLPTAMFCCNDVEAIALYKAFSVMGISVPDDISIIGFDDIESSTSVSPELTTMHINKEAMGERAVKKLIEKMNGQESMDEKIVLPVTLIERQSVKREGHHHHHH	soluble
MSLKAKIKELENNLERLRSDLQSKIQEIESIRSCKDSQLKWAQNTIDDTEMKMKSLLTELSNKETTIEKLSSEIENLDKELRKTKFQYKFLDQNSDASTLEPTLRKELEQIQVQLKDANSQIQAYEEIISSNENALIELKNELAKTKENYDAKIELEKKEKWAREEDLSRLRGELGEIRALQPKLKEGALHFVQQSEKLRNEVERIQKMIEKIEKMSTIVQLCKKKEMSQYQSTMKENKDLSELVIRLEKDAADCQAELTKTKSSLYSAQDLLDKHERKWMEEKADYERELISNIEQTESLREGHHHHHH	soluble
MTTEKEMKQIQNEFKERMDEGELLNCMRCGFCLPSCPTYIESGFQETHSPRGRIALMKAVADGMIEPDEDVERSLSLCLGCRACEPVCPSGVKYGQLLEEARDIIHQNKKHSLGERVMRKTAFHELFPHQNRMRSAVSLIGLYQRSGLQTAVRKSGMLRVLPEHLRTMEAVLPDVPKSKDMKHRPRFLPSIGPMKKRVAFFSGCLMDTMFLPTNNATLKLLQLAGCDIVIPPEQACCGALHGHSGEKNTGKELAKQNIAAFEALDVDAVITNAGGCGAFLTEYDHLLKDDPEWSERAAAFVQKLKDFSSVLVELDFHQMDLALETPQVVTYQDSCHLRNVMHTSLEPRQLLKSIKGAEFKEMEKADSCCGSAGIYNIVEVEMSMKILDSKMAAVKATEAILIVTANPGCLLQMKLGIEREGLSGKVRAVHLADLLLEAAGHKTS	not soluble
MNYHTATITCQTTRPIDIIDITADVRSALEESGLQQGTVTLLSRHTTACLNINEREERLMQDMTTWLKRFIPKDGDWLHNIETIDGRDNAHSHLLGLFMNSSETIPFSEGQLMLGKWQSIFFIELDGPRPKREVLVHIQGELEHHHHHH	soluble
MSSNECFKCGRSGHWARECPTGGGRGRGMRSRGRGGFTSDRGFQFVSSSLPDICYRCGESGHLAKDCDLQEDACYNCGRGGHIAKDCKEPKREREQCCYNCGKPGHLARDCDHADEQKCYSCGEFGHIQKDCTKVKCYRCGETGHVAINCSKTSEVNCYRCGESGHLARECTIEATA	soluble
MLKGKVALVTGASRGIGRAIAKRLANDGALVAIHYGNRKEEAEETVYEIQSNGGSAFSIGANLESLHGVEALYSSLDNELQNRTGSTKFDILINNAGIGPGAFIEETTEQFFDRMVSVNAKAPFFIIQQALSRLRDNSRIINISSAATRISLPDFIAYSMTKGAINTMTFTLAKQLGARGITVNAILPGFVKTDMNAELLSDPMMKQYATTISAFNRLGEVEDIADTAAFLASPDSRWVTGQLIDVSGGSCL	not soluble
MHSAVFSPDAPYCGAAGSNHLCEAVALCQSILARYRRTGTSFSSTELKAIQALRTEFPDTAQEPAANSAASPDQTTKDFLSILDDATDVPHNPQNDIVAFVEECCDNTKEPTVLFAAINERISAVTCSRNVRTYMVIANDNLLWDPVNGVAALIDDVTPLGKCAQARNMLTIANTLYIPLWFRSELVGCVEVPGACIPRDKATCAQLLLRCVTVAVRNSINISIRKREANKIEAMVGMATRLARDTLEESVLVQSIINTAKTLTESDRCSIFLVKADGSLEAHFEDGNVVVLPAGTGIAGHVAESGAVVNIPNAYEDDRFHRSVDKVTGYHTRTILCLPIAFEGTIVAVAQLINKLDMVTQSGQRLPRVFGRRDEELFETFSMFAAASLRNCRINETLLKEKKKSDAILDVVALLSNTDIRDVDSIVRHVLHGAKKLLNADRSSMFLLDKERNELYSKMADSANEIRFPCGQGIAGTVAESGVGENIMDAYADSRFNSAVDRQLGYRTQSILCEPITLNGEVLAVVQLVNKLGDDGSVTCFTPMDRETFQVFSLFAGISINNSHLLEFAVNAGREAMTLSLQRNSITAQRAPKSVKVIAVTPEEREAVMSIDFGGAYDFTSPGFNLFEVREKYSEPMDAAAGVVYNLLWNSGLPEKFGCREQTLLNFILQCRRRYRRVPYHNFYHVVDVCQTLHTYLYTGKASELLTELECYVLLVTALVHDLDHMGVNNSFYLKTDSPLGILSSASGNNSVLEVHHCSLAIEILSDPAADVFEGLSGQDVAYAYRALIDCVLATDMAKHADALSRFTELATSGFEKDNDTHRRLVMETLIKAGDVSNVTKPFETSRMWAMAVTEEFYRQGDMEKEKGVEVLPMFDRSKNNELARGQIGFIDFVAGKFFRDIVGNLFHGMQWCVDTVNSNRAKWQEILDGRRDSIRSSIV	not soluble
MSSVTAPRLDRATMGRKGGQKAAERWKTDPESDYATAQRETLAAANKRGARQGTGTRGRVLAVYSQTLVDTGEVPTARQIAGEIGITKRMVNIHLKELRDAGLVEQGLRDIWACGRNLGGFPV	not soluble
VTVGDQNGMGPSSGYVTRITNDAREDDMENNMKEVSSMIGNLRNMAIDMGNEIGSQNRQVDRIQQKAESNESRIDEANKKATKLLKN	soluble
MSLAAESTYKKLVMLVDDNETDNFIHRRVLEMGNFSKNIIVKNSGKSALEYLEANQSNSELIPEVIFLDINMPIVDGFVFLFEFESFPESIKERCKIIVLSSSDNKKDIDRIVDNDYVVHFITKPLSEDSIAELKKMVEGHHHHHH	soluble
MGSDKIHHHHHHMIVDNDLISIQEARILAENAGRAQRVLATFSQEQLDEIVEAVAEAVGAQAQALADMAYEETDYGNPHDKAVKNRFVCTQVREQLRGMRCVGVIGRDEHARTMDIGVPVGVIAALCPATSPVSTTICKTLIAVKSGNAVVFSPHPRAARSIAAALDIMIDAARAHGLPEGCLSYMSTVTKSGTAELMNHPATSLVMLSGVPGMIGLARCSGKPVIYGGTGNGPAFVERSADIRRAVADIMLSKTFDNGIAPSAEQSIVVDSCIEREVRHALQECGAYFMTDEESLRLAELLFCADGRHKAGMVGVSAPVLARRAGISVPDNVRLLVAERKYVSEADPYSRELLSPVLAYYVEDDWMHACEKCIELLLHERNAHTLVIHSSNEEVILQFALKKPVGRLLVNTPATFGGMGVTTNLFPSMTLGSGSAGRGITADNVSPMNLIYIRKVGYGVRQYTGAQDAAGYGSRVCAAQGVMAPHDSDSRKMQALHRILMEAIGVMDGAAHR	not soluble

From the DeepSol protein solubility set
